These results are taken from US20220306753A1 (JN BIOSCIENCES, published 2022).

In assay [1] the target is T1, Human B7-2/CD86 Protein, Fc Tag (human, UniProt P42081 24-247).
T1 construct: Bought protein coated on the ELISA plate; also called Cat. No. CD6-H5257, Acro Biosystems; not shown: Fc tag of the bought protein
T1 sequence (looked up): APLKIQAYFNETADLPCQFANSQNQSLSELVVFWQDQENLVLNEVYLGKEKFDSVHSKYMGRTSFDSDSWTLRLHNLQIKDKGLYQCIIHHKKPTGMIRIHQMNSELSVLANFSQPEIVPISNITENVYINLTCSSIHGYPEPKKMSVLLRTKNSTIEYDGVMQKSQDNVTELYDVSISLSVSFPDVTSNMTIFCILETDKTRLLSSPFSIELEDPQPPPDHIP
Kind of assay: ELISA, plate coated with 1 µg/ml CD86 Fc tag protein, anti-human kappa-HRP detection. On the procedure:
(§1) Binding of HuABC2-CTLA4 and HuABC2-CTLA4YE to human CD122, CD80 and CD86 was analyzed by ELISA. Wells of an ELISA plate were coated with 1 μg/ml of either CD122 (Human IL-2R beta/CD122 Protein, Fc Tag; Cat. No. ILB-H5253, Acro Biosystems, Newark, Del.), CD80 (Human B7-1/CD80 Protein, Mouse IgG2a Tag; Cat. No. B71-H52A4, Acro Biosystems) or CD86 (Human B7-2/CD86 Protein, Fc Tag; Cat. No. CD6-H5257, Acro Biosystems) in PBS. After blocking with Blocking Buffer and washing the wells with Wash Buffer, transiently expressed HuABC2-CTLA4 and HuABC2-CTLA4YE at 0.5 μg/ml and serial 2-fold dilutions in ELISA Buffer were applied to the wells in duplicates. Purified HuABC2 at 0.5 μg/mland serial 2-fold dilutions was used as a control. After incubation for 1 hr at room temperature and washing with Wash Buffer, bound antibodies were detected using HRP-conjugated goat anti-human kappa chain polyclonal antibody. After incubation for 30 min and washing with Wash Buffer, color development was initiated by adding ABTS substrate and stopped with 2% oxalic acid. Absorbance was read at 405 nm.
In general terms: ELISA stands for enzyme-linked immunosorbent assay.

In assay [2] the target is T2, Human B7-1/CD80 Protein, Mouse IgG2a Tag (human, UniProt P33681 35-242).
T2 construct: Bought protein coated on the ELISA plate; also called Cat. No. B71-H52A4, Acro Biosystems; not shown: mouse IgG2a tag of the bought protein
T2 sequence (looked up): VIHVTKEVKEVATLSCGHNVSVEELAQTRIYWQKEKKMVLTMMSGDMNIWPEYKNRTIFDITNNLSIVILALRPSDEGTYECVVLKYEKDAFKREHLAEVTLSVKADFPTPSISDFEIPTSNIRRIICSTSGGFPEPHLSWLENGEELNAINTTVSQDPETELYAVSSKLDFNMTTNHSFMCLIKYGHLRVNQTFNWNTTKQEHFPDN
The assay is described as follows: ELISA, plate coated with 1 µg/ml CD80 mouse IgG2a tag protein, anti-human kappa-HRP detection. The procedure:
as §1

For assay [3], the target named is T3, Human IL-2R beta/CD122 Protein, Fc Tag (human, UniProt P14784 27-239).
T3 construct: Bought protein coated on the ELISA plate; also called Cat. No. ILB-H5253, Acro Biosystems; not shown: Fc tag of the bought protein
T3 sequence (looked up): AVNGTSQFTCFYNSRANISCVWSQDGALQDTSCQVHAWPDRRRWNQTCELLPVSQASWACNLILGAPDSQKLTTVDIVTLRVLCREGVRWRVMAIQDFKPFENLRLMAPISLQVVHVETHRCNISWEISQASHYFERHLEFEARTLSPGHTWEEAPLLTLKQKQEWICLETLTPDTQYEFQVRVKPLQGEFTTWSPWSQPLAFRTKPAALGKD
Kind of assay: ELISA, plate coated with 1 µg/ml CD122 Fc tag protein, binder from 0.5 µg/ml in 2-fold dilutions, anti-human kappa-HRP. On the procedure: as §1

B1: HuABC2 (antibody, human IgG1, kappa, V domains shown)
VH: EVQLVESGGGLVQPGGSLRLSCAASGFTFSDFYMEWVRQAPGKGLEWIAASRNKANDYTTEYSASVKGRFIVSRDDSKNSLYLQMNSLKTEDTAVYYCARSYYRYDGMDYWGQGTTVTVSS
VL: EIVLTQSPATLSLSPGERATLSCSAISSVSYMYWYQQKPGQAPRLLIYDTSNLVSGVPARFSGSGSGTDYTLTISSLEPEDFAVYYCQQWNTYPYTFGGGTKVEIKR
notes: Human IgG1/kappa, wild-type Fc, expressed from pHuABC2p in CHO-K1 and purified on protein A; also called humanized anti-CD122 IgG1/kappa monoclonal antibody
Take B1: the binding result in assay [1] was “no binding (tested: 0.5 µg/ml and serial 2-fold dilutions)”; in assay [2], “no binding (tested: 0.5 µg/ml and serial 2-fold dilutions)”; in assay [3], “binds”.
